{"source": "patent US20220401560A1", "about": "“PEPTIDE ENCAPSULATING FERRITIN” (Ajinomoto Co., Inc., priority 2019, published 2022)", "key": {"[1]": {"target": "T1, ferritin (FTH) (Homo sapiens, UniProt P02794)", "T1 construct": "made in house; host or cells: Escherichia coli BL21 (DE3), plasmid pET20-FTH", "T1 sequence (P02794 whole entry)": "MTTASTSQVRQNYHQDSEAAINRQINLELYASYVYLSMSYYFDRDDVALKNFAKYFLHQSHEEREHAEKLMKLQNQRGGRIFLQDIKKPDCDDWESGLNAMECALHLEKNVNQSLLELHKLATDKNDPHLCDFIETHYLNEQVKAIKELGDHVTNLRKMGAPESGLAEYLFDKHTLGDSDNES", "test": "Search for peptides capable of being encapsulated into ferritin by disassembly/reassembly process, LC-MS detection", "conditions": "encapsulation into ferritin (FTH); three trials", "description": "Peptides capable of being encapsulated into ferritin by disassembly/reassembly process were searched. In the disassembly/reassembly process, 1 mL of a 50 mM glycine hydrochloride buffer (pH 2.3) containing FTH at a final concentration of 5 mg/mL and the peptide at a final concentration of 0.5 mM, was left to stand at room temperature for 15 minutes. Next, 310 μL of a 1 M Tris hydrochloride buffer (pH 9.0) was added for neutralization, and left to stand at room temperature for 3 hours. After the standing, 1.2 mL of a 50 mM Tris hydrochloride buffer (pH 8.0) was added, and centrifuged (at 15,000 rpm for one minute). Thereafter, 2.5 mL of its supernatant was injected into a desalting column PD-10 (Sephadex G-25 filled product, GE Healthcare Inc.) equilibrated with a 50 mM Tris hydrochloride buffer (pH 8) for the elusion with 3.0 mL of a 50 mM Tris hydrochloride buffer (pH 8.0) to separate non-encapsulated peptides and ferritin. A whole amount (3.0 mL) of the resulting solution was concentrated to 0.1 mL by centrifugal ultrafiltration using Vivaspin 20-100K (GE Healthcare Inc.). The operation of adding 10 mL of a 50 mM Tris hydrochloride buffer to the concentrated solution and then concentrating was repeated twice to remove peptides that were not removed by PD-10 to obtain 0.1 mL of a sample solution. For the LC-MS analysis, 50 p1 of a 1 M glycine hydrochloride buffer (pH 2.3) was added to 50 μL of the sample solution and then the resulting solution was left to stand at room temperature for 15 minutes. To the solution, 900 μL of ethanol was added. Next, the resulting solution was stirred vigorously and then centrifuged (at 15,000 rpm for five minutes) for collection of the supernatant. The supernatant was analyzed using LCMS-2020 (Shimadzu Corporation) as LC-MS, Inertsil (Registered trademark) as a column, ODS-3, particle diameter of 2 μm and 2.1 mm×50 mm (GL science). Thereafter, 10 μL of the sample injected into the column was eluded at a flow rate of 0.2 mL/min for 10 minutes such that a mixing ratio of a solution A (0.1% formic acid/99.9% acetonitrile) and a solution B (50% water/50% acetonitrile) is from 95:5 to 95:5.\nThe encapsulation of the peptide into ferritin was studied by comparing in terms of the amount of the peptide detected by LC/MS between the sample prepared by encapsulating the peptide into ferritin at the disassembly/reassembly process and the sample prepared simply by mixing ferritin with the peptide. For example, ClAc-FHC was eluted at a retention time of 0.8 minute. […] However, the peak was not observed for the sample prepared by simply mixing the peptide with ferritin without performing the disassembly/reassembly process (FIG. 12B). FIG. 13 to FIG. 17 illustrate LC-MS results for FTH in which the peptide was encapsulated at the disassembly/reassembly process."}, "[2]": {"test_system": "SKBR-3 cell", "test": "Cell incorporation test by FACS in SKBR-3 cell", "format": "cell-based, human", "conditions": "24 hours, FTH 100, 200 and 400 nM, or peptide without FTH encapsulation at the same peptide concentrations", "description": "A human breast cancer derived SKBR-3 cell (20,000 cell/well, 96-well plate) was added to 100 μL media that were produced by adding the PKC-F encapsulating FTH to evaluation media (Opti-MEM™ (Thermo Fisher Scientific Inc.)+1% non-essential amino acid solution (Thermo Fisher Scientific Inc.)+1% penicillin—streptomycin (Nacalai Tesque, Inc.)) at final concentrations of 100 nM (PKC-F concentration 0.86 μM), 200 nM (PKC-F concentration 1.72 μM) and 400 nM (PKC-F concentration 3.44 μM), respectively, and then cultured at 37° C. The transferrin receptor TfR was expressed in the SKBR-3 cell. […] After that 100 μL of an Opti-MEM™ medium was added, and the cells were transferred to a plate for fluorescence-activated cell sorting (FACS), and then subjected to centrifugal separation at 400×g for 5 minutes. The cells for each were suspended in a FACS buffer (Attune™ Focusing Fluid, Thermo Fisher Scientific Inc.), and analyzed by FACS (Attune NxT, Thermo Fisher Scientific Inc.).\nThe cell incorporation of the obtained FAM-SV40 encapsulating FTH was evaluated. […]\nAfter 100 μL of the Opti-MEM™ medium was added, the cells were transferred to the plate for fluorescence-activated cell sorting (FACS), and then subjected to centrifugal separation at 400×g for 5 minutes. […]"}}, "note": "No end group written: not given here.", "data": [{"substance": "5(6)-FAM-CGGPKKKRKVG (SEQ ID NO: 10) ({5(6)‑FAM}-CGGPKKKRKVG) [FAM-SV40, fluorescent dye-modified peptide, linear]", "values": [{"measurement": "encapsulation", "setting": "[1]", "value": "A (“A” represents peptides with three times of confirmation of encapsulation.)"}, {"measurement": "fluorescence intensity of cells by FACS", "setting": "[2]", "value": "not observed"}]}]}
